The labels stand for the following.
B1: Table 1 Line # 49 antibody (SP_Plasma_cell) (antibody, human IgG4, V domains shown)
VH: EVHLLESGGGFIQPGGSLRLSCAASGFTFSTYAMNWVRLAPGKGLEWVSTISGSGGFTSYTDSVQGRFTISRDNSKNKLYLQINNLTAEDTAVYYCAKDRRIVGATGFDYWGQGALVTVSS
VL: DIQMTQSPSSLSASAGDRVTITCRASQSISSYLNWYQQKPGKAPKLLIYAASSLQSGVPSRFSGSGSGTDFTLTISSLQPEDSATYYCQQSYGFHTFGQGTRLEIK
notes: Cloned with human IgG4/human Igk constants for Kd; barcode counts are of the source cell's own IgG
B2: Table 1 Line # 18 antibody (BM_Plasma_cell) (antibody, human IgG4, V domains shown)
VH: EVQLVQSGAEVKKPGESLKISCKGSGYRFTTNWIGWVRQMPGKGLEWMGIIYPDDSDTRYSPSFQGQVTISADKSINTAYLHWNSLKSSDTAIYYCARGANWFDPWGQGTLVTVSS
VL: EIVLTQSPGILSLSPGKRATLSCRASQSVSSNFLAWYQQKPGQAPRLLIYGTSSRANGIPDRFSGSGSGTDFTLTISGLEPEDFAEYYCQQYGSSVTFGQGTRLEIK
notes: as for B1
B3: Table 1 Line # 34 antibody (SP_B_cell) (antibody, human IgG4, V domains shown)
VH: EVQLVASGGDLVQPGRSLRLSCAASGFTFDDFGMHWVRQAPGKGLEWVSGISWNGGHMGYAASVKGRFTMSRDNAKNSLYLQMNSLRVEDTALYYCVKEFSSSWYGFFDLWGRGTLVTVSS
VL: DIQMTQSPSSLSASVGDRVTITCRASQGLGNSVAWYQQKPGQIPRLLISAAASLQSGVPSRFSGSGSGTDFTLTISSLQPEDVATYYCQNYNSAPRTFGQGTNVEIK
notes: as for B1
B4: Table 1 Line # 46 antibody (SP_Plasma_cell) (antibody, human IgG4, V domains shown)
VH: B3 VH with V5E, T28I, M58I, A62D, M70I, V88A, V97A, F100H, L110F
VL: B3 VL with G30S, S77R
notes: as for B1
B5: Table 1 Line # 37 antibody (SP_B_cell) (antibody, human IgG4, V domains shown)
VH: QVHLVESGGDVVQPGRSLRLSCAASGFTFSYYGMHWVRQAPFKGLEWVAVIWYDGSNKYYADSVKGRFTITRDNSKNTVYLQMNSLRAEDTAIYYCARWGGFGVTGTHLDYWGQGTLVTVSS
VL: DIQLTQSPSLLSASVGDRVTITCWASQDIAGHFAWYQQKPGTVPKLLIYAISTLDSGVPSRFSGSRSGTEFTLTISSLQPEDFATYYCQHLNSYPYTFGQGTKLEIK
notes: as for B1
B6: Table 1 Line # 53 antibody (SP_Plasma_cell) (antibody, human IgG4, V domains shown)
VH: EIQLVESGGGLVQPGRSLRLSCAASGFTFDDYAMHWVRQAPGKGLEWVSGINWNNGSLGYADSVKGRFTISRDNAKNSLYLQMNSLRTEDTALYYCVKDTGSWASYYGMDVWGHGTTVTVSS
VL: DIQMTQSPSSLSASIGDRVTITCRASQGIRNDLGWYQQKPGKAPKRLIYAASSLQSGVPSRFSGSGSGTEFTLTISSLQPEDFATYYCLQHNSYPYTFGQGTKLEIK
notes: as for B1
B7: Table 1 Line # 54 antibody (SP_Plasma_cell) (antibody, human IgG4, V domains shown)
VH: QVQLVQSGAEVKKPGASVKVSCKASGYTFTNYGISWVRQAPGQGLEWMGWISVYNGNTNYAQKLQGRVTMTTDTSTSTAYMEVRSLRSDDTAVYYCARGVNWNYVFDYWGQGTLVTVSS
VL: B6 VL with I15V, A50V, A51V, Y96W, L104V
notes: as for B1
B8: Table 1 Line # 31 antibody (SP_B_cell) (antibody, human IgG4, V domains shown)
VH: EVQLVESGGGLVQPGRSLRLSCAASGFTFDDYAMHWVRQAPGKGLEWVSGISWNSGNIGYADSVKGRFTISRDNANNSLYLQMNSLRAEDTALYYCAKDYSSAWYGYFDYWGQGTLVTVSS
VL: not shown
notes: as for B1
B9: Table 1 Line # 19 antibody (BM_Plasma_cell) (antibody, human IgG4, V domains shown)
VH: B8 VH with Y32F, A40E, S55G, N76K, L93F, Y100V
VL: DIQMTQSPSTLSASVGDRVTITCRASQSVSSWLAWYQQKPGKAPKLLIYKASSLESGVPLRFSGSGSGTEFTLTISSLQPDDFATYYCQVYNSDSRTFGQGTKVEIK
notes: as for B1
B10: Table 1 Line # 4 antibody (BM_Plasma_cell) (antibody, human IgG4, V domains shown)
VH: B8 VH with Y32F, N57S, N76K, A97T, Y100S, A103S, Y110L, Q113R
VL: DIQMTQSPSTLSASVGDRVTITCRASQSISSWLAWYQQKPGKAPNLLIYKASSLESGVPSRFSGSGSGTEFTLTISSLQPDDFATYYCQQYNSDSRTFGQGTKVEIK
notes: as for B1
B11: Table 1 Line # 40 antibody (SP_Plasma_cell) (antibody, human IgG4, V domains shown)
VH: QVQLQESGPGLVKPSETLSLTCTISGGSISTYYWSWIRQPPGKGLEWIGYIYYSGNTNYNPSLKSRVTISVDTSKNQFSLKLNSVTAADTAVYYCARHRGSYVYGMDVWGQGTTVTVSS
VL: DIQMTQSPSSLSASLVDRVTITCRASQTISSYLNWYQQKPGKAPKLLIYGASILQSGVPSRFSGSGSGTDFTLTISSLQPEDHAVYFCQQSYSSPTFGGGTKVEIK
notes: as for B1
B12: Table 1 Line # 1 antibody (BM_Plasma_cell) (antibody, human IgG4, V domains shown)
VH: EVQLVESGGGLVKPGGSLRLSCAASGFTFSSYSMNWVRQAPGKGLEWVSSISSSSSYIYYADSVKGRFTISRDNAKNSLYLQMNSLRAEDTAVYYCASLAARPFWGQGTMVTVSS
VL: DIQMTQSPSSVSASVGDRVTITCRASQGISSWLAWYQQKPGRAPKLLIYAASSLQSGVPSRFSGSGSGTDFTLTISSLQPEDFATYYCQQANSFPLTFGGGTKVEIK
notes: as for B1
B13: Table 1 Line # 35 antibody (SP_B_cell) (antibody, human IgG4, V domains shown)
VH: EVQLVESGGGLVKPGGSLRLSCAASGFTFSSYSMNWVRQAPGKGLEWVSSISSSSSYIYYADSVKGRFTISRDNAKNSLYLQMNSLRAEDTAVYYCARDRSSSPLENWGQGTLVTVSS
VL: B12 VL with R42K, L96I, G100Q, K103R, V104L
notes: as for B1
B14: Table 1 Line # 13 antibody (BM_Plasma_cell) (antibody, human IgG4, V domains shown)
VH: EVQLVESGGEMIRPGGSLRLSCAASGFIFDDYGMSWIRQAPGKGLEWVSGINWNGGHTGYSDSVKGRFTISRDNAKNSLYLQMNSLRAEDTALYHCVRDSSSSWYGVFDYWGQGTLVTVSS
VL: DIQMTQSPSSLSASVGDRVTITCRASQGISNSLAWYQQKPGTVPKLLIFAASTLLSGIPSRFSGGGSGTDFTLTISSLQPEDVATYYCQNYNSAPRTFGQGTKVEIK
notes: as for B1
B15: Table 1 Line # 7 antibody (BM_Plasma_cell) (antibody, human IgG4, V domains shown)
VH: B8 VH with S55G, G56A, N57S, V64L, N76K, A88S, Y94F, K98R
VL: B14 VL with G28D, S32Y, T42K, F49Y, L55Q, I58V, G65S, A94V
notes: as for B1
B16: Table 1 Line # 16 antibody (BM_Plasma_cell) (antibody, human IgG4, V domains shown)
VH: B8 VH with A33G, N57H, N76K, Y80N, Y100I, A103S, Y110L, Q113R
VL: B14 VL with S32F, Y36F, T42K, F49Y, L55Q, I58V, G65S, N90E
notes: as for B1
B17: Table 1 Line # 11 antibody (BM_Plasma_cell) (antibody, human IgG4, V domains shown)
VH: B8 VH with N57S, N76K, K98R, Y110S
VL: B14 VL with S30N, S32Y, T42K, V43I, A50T, L55Q, I58V, G65S, S76N, A94V
notes: as for B1
B18: Table 1 Line # 15 antibody (BM_Plasma_cell) (antibody, human IgG4, V domains shown)
VH: EVQLVESGGALVQPGRSLRLSCAASGFAFDDYAMHWVRQAPGKGLEWVSGISWNGASLGYADSLKGRFTISRDNAKNSLYLQMNSLRSEDTALFYCARDYSSAWYGYFDYWGQGTLVTVSS
VL: B14 VL with G28D, S32Y, T42K, F49Y, L55Q, I58V, G65S, E81Q, A94V
notes: as for B1
B19: Table 1 Line # 2 antibody (BM_Plasma_cell) (antibody, human IgG4, V domains shown)
VH: EVRLVESGGGLVQPGRSLRLSCAASGFTFDDYAMHWVRQAPGRGLEWVSGISWKGDALGYADSVKGRFTISRDNAKNSLYLQMSSLRAEDTALYYCAKDTGSYHYYYGLDVWGQGTTVAVSS
VL: DIQMTQSPSSLSASVGDRVTITCRASQGIRTDLGWYQQKPGKAPKRLIYAASNLHGGVPSRFSGTGSGTDFTLTISSLQPEDFATFFCLQHYSYPLTFGGGTKVEIK
notes: as for B1
B20: Table 1 Line # 41 antibody (SP_Plasma_cell) (antibody, human IgG4, V domains shown)
VH: B19 VH with R3Q, A119T
VL: B19 VL with T31N, K45E, H55Q, G56S, T65S, D70E, F87Y
notes: as for B1
B21: Table 1 Line # 42 antibody (SP_Plasma_cell) (antibody, human IgG4, V domains shown)
VH: EVQLLESGGGLVQPGGSLRLSCAASGFTFISYTLSWVRQAPGKGLEWVSAISGSGGSTYYVDSVKGRFTISRDNSRNTLYLQMNSLRAEDTAVYYCAKDLGSTVYWGQGTLVTVSS
VL: not shown
notes: as for B1

Changes are numbered by the printed parent chain.

One assay has as its target T1, human IL-4Rα (hIL-4Rα) monomeric protein (human, UniProt P24394 26-232, limits assumed).
T1 construct: also called hIL-4Rα antigen; barcoded hIL-4Rα
Briefly: Biacore (SPR); negative log10 of Kd. On the technique in general: In SPR one partner is held on a chip, and binding of the other changes the refractive index at the surface.
Molecule B1 yielded a negLog10Kd of 6.88.
B2 displayed a negLog10Kd of 7.38.
Molecule B3 yielded a negLog10Kd of 7.47.
On the same count and under the same terms, under B4 stands 7.31; under B5, 6.71; under B6, 6.61.
Still for that read-out and setting: then B7, with 7.87; and B8, with 6.88; and B9, with 7.92.
On the same count and under the same terms, then B10, with 6.8; and B11, with 6.93; and B12, with 6.38.
Consider B13, for which the negLog10Kd was 7.53.
In turn, B14 had a negLog10Kd of 7.24.
Same read-out and setting: then B15, with 7.81; and B16, with 8.09; and B17, with 7.56.
Consider B18, for which the negLog10Kd came out at 7.7.
On the same count and under the same terms, under B19 stands 6.79; under B20, 6.82; under B21, 6.9.

The target in a further assay is T1, human IL-4Rα (hIL-4Rα) monomeric protein. Briefly: Biacore (SPR).
B1 showed a Kd of 132 nM.
Take B2: the affinity, expressed as Kd, was 41.4 nM.
The same measure, in the same setting: then B3, with 34.2 nM.
Molecule B4 showed a Kd of 49.2 nM.
On the same count and under the same terms, then B5, with 197 nM; and B6, with 247 nM.
B7 gave a dissociation constant (Kd) of 13.5 nM.
For B8, the affinity, expressed as Kd, was 133 nM.
Regarding B9, the Kd amounted to 12.1 nM.
The same measure, in the same setting: under B10 stands 158 nM; under B11, 118 nM; under B12, 416 nM.
Molecule B13 had an equilibrium dissociation constant (Kd) of 29.3 nM.
The molecule B14 registered a Kd of 58.2 nM.
In turn, B15 came in with a dissociation constant Kd of 15.5 nM.
Molecule B16 registered a Kd of 8.04 nM.
The same measure, in the same setting: then B17, with 27.5 nM; and B18, with 19.9 nM; and B19, with 161 nM.
The same measure, in the same setting: under B20 stands 150 nM; under B21, 127 nM.

For the next assay the target is unchanged. As to the kind of experiment: barcoded-antigen count on source cell (scRNA-seq).
Molecule B1 yielded an REGN560.L15_ab_raw of 1200 counts.
As for B2, the REGN560.L15_ab_raw is 2170 counts.
As to B3, the REGN560.L15_ab_raw was 6890 counts.
Molecule B4 gave an REGN560.L15_ab_raw of 1520 counts.
B5 registered an REGN560.L15_ab_raw of 6230 counts.
The molecule B6 yielded an REGN560.L15_ab_raw of 818 counts.
B7 had an REGN560.L15_ab_raw of 815 counts.
Regarding B8, the REGN560.L15_ab_raw came out at 8520 counts.
The same measure, in the same setting: under B9 stands 2060 counts; under B10, 5050 counts.
In turn, B11 had an REGN560.L15_ab_raw of 5520 counts.
The same measure, in the same setting: then B12, with 11200 counts; and B13, with 6710 counts.
Same read-out and setting: under B14 stands 2930 counts; under B15, 4140 counts; under B16, 2370 counts.
On the same count and under the same terms, under B17 stands 3210 counts.
Molecule B18 gave an REGN560.L15_ab_raw of 2580 counts.
Still for that read-out and setting: under B19 stands 6540 counts.
Still for that read-out and setting: then B20, with 2460 counts; and B21, with 2080 counts.

The term Kd denotes the equilibrium constant for the complex coming apart.

Source of the values: patent publication US20230349919A1 (Regeneron, published 2023).
